Data on 2 molecules can be found in US20200138979A1 (REGENTS OF THE UNIVERSITY OF MICHIGAN, published 2020).

Assay [1] has as its target T1, recombinant FGFR2-ECD (Met1-Glu377), extracellular domain of FGFR2c (UniProt P21802 22-377, glycosylated).
T1 construct: range 1-377; Bought construct; also called #10824-H08H-50, Sino Biological
Put plainly: phage display biopanning (4 rounds) against immobilized recombinant FGFR2-ECD; peptide displayed on M13 phage. On the procedure: Peptide selection was performed using a phage display library (New England Biolabs, Ph.D.-12) per manufacturer instructions. This library consists of M13 bacteriophage that expresses ˜10⁹ unique 12-amino acid sequences. 2×10¹¹ pfu consisting of 2×10⁹ unique clones with ˜100 copies each were biopanned against FGFR2-ECD immobilized in a 6-well plate at 4° C. Four rounds of biopanning were performed using a decreasing quantity (100, 80, 60, and 40 μg) of FGFR2-ECD in successive rounds to increase binding specificity. After the 4th round, 50 plaques were randomly selected for DNA preparation and sequence analysis. We used an ABI Automatic DNA Analyzer (Applied Biosystems) with primer 5′-[…] TTA GCG TAA CG-3′ (−96 gIII sequencing primer, New England Biolabs) that corresponds to the pIII gene sequence of the M13 phage.

In assay [2] the target is FGFR2c (fibroblast growth factor receptor 2, isoform IIIc) stably expressed on QhTERT cells (UniProt P21802). Put plainly: flow cytometry, apparent dissociation constant on QhTERT cells expressing FGFR2c, 0-200 nM peptide, 4° C. (In general: Flow cytometry measures light scatter and fluorescence of single cells or particles in a stream.)
Assay [3] has the same target. Put plainly: flow cytometry time course, 5 µM peptide on QhTERT cells expressing FGFR2c, first order kinetics fit.
The target is the same in assay [4]. Put plainly: flow cytometry on cells overexpressing FGFR2 (same experiment as kd=68 nM, printed with more digits).
Assay [5] has the same target. The assay is described as follows: flow cytometry time course, 5 µM peptide on QhTERT cells expressing FGFR2c.

Where no end group is shown, it is not given here.

Chain of FGFR2c (fibroblast growth factor receptor 2, isoform IIIc) stably expressed on QhTERT cells (P21802 22-821): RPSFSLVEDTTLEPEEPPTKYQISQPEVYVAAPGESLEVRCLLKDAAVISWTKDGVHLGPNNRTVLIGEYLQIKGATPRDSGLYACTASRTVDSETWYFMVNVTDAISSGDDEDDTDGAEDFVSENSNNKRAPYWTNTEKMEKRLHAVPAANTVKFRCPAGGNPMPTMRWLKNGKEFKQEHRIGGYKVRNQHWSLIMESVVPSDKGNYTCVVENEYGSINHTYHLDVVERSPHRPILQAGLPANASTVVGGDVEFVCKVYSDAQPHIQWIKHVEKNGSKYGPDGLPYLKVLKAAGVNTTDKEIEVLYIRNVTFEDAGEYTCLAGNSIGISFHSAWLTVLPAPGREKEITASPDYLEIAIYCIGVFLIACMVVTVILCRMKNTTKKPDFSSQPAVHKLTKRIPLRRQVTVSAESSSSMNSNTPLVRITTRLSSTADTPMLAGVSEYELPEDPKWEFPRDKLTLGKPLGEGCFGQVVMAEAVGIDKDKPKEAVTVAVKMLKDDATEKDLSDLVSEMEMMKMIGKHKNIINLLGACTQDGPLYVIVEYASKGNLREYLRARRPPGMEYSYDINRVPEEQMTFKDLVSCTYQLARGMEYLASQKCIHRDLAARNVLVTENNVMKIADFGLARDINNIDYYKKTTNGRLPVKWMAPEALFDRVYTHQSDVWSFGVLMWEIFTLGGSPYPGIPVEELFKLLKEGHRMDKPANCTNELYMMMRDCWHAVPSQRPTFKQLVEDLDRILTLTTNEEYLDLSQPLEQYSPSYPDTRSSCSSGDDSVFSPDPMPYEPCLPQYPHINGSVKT
T1 sequence (P21802 22-377 limits assumed): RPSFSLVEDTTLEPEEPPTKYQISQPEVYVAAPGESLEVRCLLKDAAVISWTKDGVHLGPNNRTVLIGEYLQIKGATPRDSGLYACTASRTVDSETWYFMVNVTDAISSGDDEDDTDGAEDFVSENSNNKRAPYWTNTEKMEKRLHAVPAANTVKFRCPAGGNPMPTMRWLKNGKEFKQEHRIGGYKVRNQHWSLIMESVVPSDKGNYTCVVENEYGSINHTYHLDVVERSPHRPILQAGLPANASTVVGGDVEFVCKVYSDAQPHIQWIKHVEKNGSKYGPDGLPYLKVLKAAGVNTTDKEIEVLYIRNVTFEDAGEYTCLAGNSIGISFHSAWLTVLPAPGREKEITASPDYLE

As to SRRPASFRTARE (also called unlabeled SRR*; SSR peptide) [SRR* peptide SRRPASFRTARE, unlabeled], the binding result in assay [1] is “binds”.
For the molecule SRRPASFRTAREGGGSK(Cy5.5)-NH2 [SRR*-Cy5.5 (peptide … with Cy5.5 attached via a C-terminal GGGSK linker)], the Kd turned out to be 68 nM in assay [2] and 67.9 nM in assay [4]. Moreover, in assay [3], the apparent association time constant k turned out to be 0.16 min⁻¹. The molecule also came in with a time scale for onset of binding in assay [5] of 6.2 min.
